For this assay, the target named is β-haemoglobin (β^h), haem-bound, from human blood (human). In words: SEC-MALS. (In general: SEC sorts molecules by how far they enter the pores of the column.)

Among the data in article PMC4384432 are stoichiometry N values, retold here.

One may read the stoichiometry N as a count of units in the complex or per binding partner. With “β-haemoglobin (β^h), haem-bound, from human blood (natural protein)”, the stoichiometry N amounted to 4.
